Data on one molecule can be found in patent CN115819563A.

The test concerns the target 猪伪狂犬病毒gE蛋白 (on inactivated pseudorabies virus) (pseudorabies virus (PRV)).

Values joined by “and” are separate entries in the source; they are usually repeats but may differ in a detail not shown here. Identical values can stand only once.

B1: 抗猪伪狂犬病毒gE蛋白单克隆抗体 (antibody, V domains shown)
VH: EVQLQESAHELVKPGASVKIPCKASGYTFTDYNMHWVKQSLRKSLEWIGDIHPNNGGTIYNQKCMGKATLTVDKSSSTADMELRSLTSDDTAVYSCAREGIHCYGSCYVRYDLDYCRQGTTLTVSS
VL: DTVLTQSSASLAVSLCQRATISCKASQSVDHDGDSYMNWSQQRPSQSSTLLIYAASNLESGIPARFSCSGSRTDFTLNIHPVEEEDAATYYCQQT
B1: the OD450nm is 2.59 OD450nm and 2.57 OD450nm and 2.62 OD450nm.
